Experimental data from publication PMC10926475, “A Detoxification Enzyme for Apis mellifera Newly Characterized by Recombinant Expression: 10-Formyl Tetrahydrofolate Dehydrogenase” (Frontiers in Insect Science, 2022).

Substrate: Nc1nc2c(c(=O)[nH]1)N[C@@H](CN(C=O)c1ccc(C(=O)N[C@@H](CCC(=O)O)C(=O)O)cc1)CN2
Assay: purified protein
Format: biochemical, Apis mellifera
Conditions: dehydrogenase reaction, 200 μM NADP+, 100 mM β-mercaptoethanol, Tris/HCl pH 7.6 (pH of highest Vmax), 30°C

B1: Amel_10-FTHFDH (10-formyl tetrahydrofolate dehydrogenase of A. mellifera) (Apis mellifera) (protein)
chain: AQLKVAIIGQSNFAAEVYKLLKLNGHQITGVFTIPDKGNREDPLAITAKIDNTPVFKIKSWRSKGVTLPEVLQLYKGIEVDLNVLPFCSQFIPMEVINHPRHRSICYHPSLLPRHRGASAITWTLIEGDDTAGFSIFWADDGLDTGPILLQRSCKVNSNDTLDSLYNNFLYPEGIKAMAEAVNLVAKGTAPMIPQTEEGATYDPMMNKKELQKIDWTKPAKQVHDFIRSLDSTPGAWTIIDGEEVRLFGSILWNDDQIPEHEIEVNVEDRLGIIHKDGLLIKAVDNHFVNVERMKVGTRTILASKFGQKSEDTIIEFTAEEQKMIESLKRTWEGILNMDVNEDTDFFACGAGSMDVIRLVEEVKDNLGVILQNIDVFMSPVFIQFVNKVVLTARGISTSKEIKYDAVEVQTNNMTLKFPRQLFINGEFVNGHGNPIDTINPHDETIICSVETGTVEDVDKAVKAAKKAFEEGEWSKISARERGVLLFKLADLMEEHKEELATIESIDSGAVYTLALKTHIGMSIETWRYFAGWCDKIQGSTIPITHARPNRNLTFTRKEPIGVCGLVTPWNYPLMMLSWKMAACLAAGNTVVMKPAQASPLTALKFAELTAKAGFPPGVVNIVPGNGTETGNAICEHLLIRKLGFTGSTQIGQSIMKSCANSNLKKVSLELGGKSPLVIFEDTDLQQAIKIAMSSVFFNKGENCIAAGRLFVEETIHDEFLQRIVEETKKISIGNPLDRSTAHGPQNHKAHLNKLLKFVERGVKEGAKLIYGGKRLDRPGWYFEPTIFTDVKDDMYIAKEESFGPIMVISKFSSKNIDDMIARANNTEYGLASGILTKDISKALRFAEKIEAGTVFINTYNKTDVAAPFGGFKMSGFGKDLGQEALNEYLKTKTITVEY
notes: complete ORF, N-terminal 6xHis tag kept (…... from primer), baculovirus / Hi5 insect cells, Ni-NTA, about 100 kDa
  Km: 9.596 µM
